Assay results from patent US20140086916A1 (Merck Sharp & Dohme, published 2014).

B1: 1F11 wildtype (parent) humanized anti-PCSK9 monoclonal IgG1 antibody (antibody)
heavy: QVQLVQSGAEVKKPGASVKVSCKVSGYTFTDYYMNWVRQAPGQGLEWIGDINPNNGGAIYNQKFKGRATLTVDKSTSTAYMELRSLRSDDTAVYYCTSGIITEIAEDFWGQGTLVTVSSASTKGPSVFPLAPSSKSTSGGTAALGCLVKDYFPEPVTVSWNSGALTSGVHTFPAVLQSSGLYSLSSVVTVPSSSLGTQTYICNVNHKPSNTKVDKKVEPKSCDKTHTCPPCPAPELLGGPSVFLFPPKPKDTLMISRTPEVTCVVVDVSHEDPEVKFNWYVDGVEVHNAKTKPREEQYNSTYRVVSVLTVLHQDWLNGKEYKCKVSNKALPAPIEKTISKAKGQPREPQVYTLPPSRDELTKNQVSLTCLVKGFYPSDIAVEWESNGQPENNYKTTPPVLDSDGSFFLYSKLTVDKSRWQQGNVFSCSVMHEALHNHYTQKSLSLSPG
light: DIQMTQSPSSLSASVGDRVTITCKASQNVGTNVVWYQQKPGKAPKALIHSASYRYSGVPSRFSGSGSGTDFTLTISSLQPEDFATYYCQQYKTYPYTFGQGTKVEIKRTVAAPSVFIFPPSDEQLKSGTASVVCLLNNFYPREAKVQWKVDNALQSGNSQESVTEQDSKDSTYSLSSTLTLSKADYEKHKVYACEVTHQGLSSPVTKSFNRGEC
notes: Produced in glycoengineered Pichia pastoris GFI5.0 (strain YGLY21351); also called 1F11 IgG1 GS5.0; YGLY21351
B2: 1F11 IgG1 F243A/V264A double mutein anti-PCSK9 antibody (antibody)
heavy: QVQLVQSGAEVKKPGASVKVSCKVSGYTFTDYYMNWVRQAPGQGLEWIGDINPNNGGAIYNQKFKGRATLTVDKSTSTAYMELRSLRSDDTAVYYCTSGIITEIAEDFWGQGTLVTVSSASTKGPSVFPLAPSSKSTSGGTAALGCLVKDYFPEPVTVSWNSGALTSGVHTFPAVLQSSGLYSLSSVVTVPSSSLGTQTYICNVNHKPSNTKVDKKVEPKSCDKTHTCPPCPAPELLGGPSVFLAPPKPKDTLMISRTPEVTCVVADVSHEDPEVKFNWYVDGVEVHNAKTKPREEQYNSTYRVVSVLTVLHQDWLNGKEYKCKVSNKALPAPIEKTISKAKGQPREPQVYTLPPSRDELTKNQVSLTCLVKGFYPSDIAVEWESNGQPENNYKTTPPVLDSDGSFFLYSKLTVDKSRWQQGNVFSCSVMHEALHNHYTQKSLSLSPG
light: B1 light
notes: sialylated N-glycans; also called 1F11 DM; YGLY23258

Experiments:
[1] = target: T1, FcγRIIa (Pichia pastoris produced) (UniProt P12318 34-217, limits assumed); test: ELISA-type plate assay, FcγR coated, antibody dimerized with AP-conjugated goat anti-human IgG F(ab')2, RFU readout
T1 construct: also called CD32A
T1 sequence (looked up): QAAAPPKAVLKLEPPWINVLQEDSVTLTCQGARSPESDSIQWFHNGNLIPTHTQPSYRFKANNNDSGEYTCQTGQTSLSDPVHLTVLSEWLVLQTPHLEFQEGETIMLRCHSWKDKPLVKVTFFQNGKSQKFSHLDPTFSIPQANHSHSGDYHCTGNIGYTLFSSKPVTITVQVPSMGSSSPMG
Protocol: (§1) Fcγ receptor binding assays were carried out as described (Shields, et al. (2001) J. Biol. Chem. 276:6591-6604) with minor modifications. High protein binding 96-well plates (Corning Costar) were coated with 100 μL per well of Fcγ receptor solutions in PBS at the following concentrations: 1 μg/mL for both FcγRI (R&D Systems) and FcγRIIa (Pichia pastoris produced), 2 μg/mL for FcγRIIb (P. pastoris produced), 0.8 μg/mL for FcγRIIIa-F158, and 0.4 μg/mL for FcγRIIIa-V158 (both P. pastoris produced). All Pichia pastoris produced receptors were expressed and purified as described (Li, et al. (2006) Nature Biotechnology 24:210-215). Monomeric antibody samples added to the FcγRI plate were serially diluted in assay diluent (1×PBS, 1% BSA, and 0.05% Tween20) and 100 μL, per well was added to the plate. Antibody samples prepared for the remaining receptors require a one hour dimerization step with half molar ratio of goat anti-human IgG F(ab′)2 F(ab′)2 that is conjugated with alkaline phosphatase for detection. These dimerized F(ab′)2/antibody complexes were also serially diluted and 100 μL per well were added to the remaining receptor plates and all plates were incubated for one hour at room temperature. FcγRI bound sample antibody was detected using the same goat anti-human IgG F(ab′)2 alkaline phosphatase conjugated F(ab′)2. Sample antibody binding was quantified by measuring excitation at 340 nm and emission at 465 nm after 18 hour incubation with SuperPhos, 4-MUP Fluorescence AP Substrate Detection System (Virolabs).

[2] = target: T2, FcγRIIIa-F158 (Pichia pastoris produced) (UniProt P08637 17-208, limits assumed); test: as above
T2 construct: also called FcγRIIIA LF; FcgRIIIA LF
Protocol: as §1

[3] = target: T3, FcγRIIb (Pichia pastoris produced) (UniProt P31994 43-217, limits assumed); test: as above
T3 construct: also called FcgRIIB; CD32B
T3 sequence (looked up): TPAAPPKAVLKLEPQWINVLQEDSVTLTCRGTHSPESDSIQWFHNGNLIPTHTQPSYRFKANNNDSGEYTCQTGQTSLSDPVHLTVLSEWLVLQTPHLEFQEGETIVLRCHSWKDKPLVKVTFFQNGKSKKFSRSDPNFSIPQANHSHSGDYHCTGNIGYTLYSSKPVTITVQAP
Protocol: as §1

[4] = target: T4, FcγRIIIa-V158 (Pichia pastoris produced) (UniProt P08637 17-208, limits assumed); test: ELISA on plate-coated receptor; antibody dimerized with anti-human IgG F(ab')2-AP; ELISA IC50, YGLY23258 (dimer), Table 7 experiment
T4 construct: also called FcγRIIIA LV; FcgRIIIA LV
Protocol: as §1, with “These dimerized F(ab′)2/antibody complexes were also serially diluted and 100 μL per well were added to the remaining receptor plates and all plates were incubated for one hour at room temperature.” left out

[5] = target: T2, FcγRIIIa-F158 (Pichia pastoris produced); test: as above
Protocol: as §1, with “These dimerized F(ab′)2/antibody complexes were also serially diluted and 100 μL per well were added to the remaining receptor plates and all plates were incubated for one hour at room temperature.” left out

[6] = target: T4, FcγRIIIa-V158 (Pichia pastoris produced); test: summary of the FcγR ELISAs; Table 8 summary: range of fold decrease over the ELISA experiments
Protocol: as §1, with “These dimerized F(ab′)2/antibody complexes were also serially diluted and 100 μL per well were added to the remaining receptor plates and all plates were incubated for one hour at room temperature.” left out

[7] = target: T2, FcγRIIIa-F158 (Pichia pastoris produced); test: as above
Protocol: as §1, with “These dimerized F(ab′)2/antibody complexes were also serially diluted and 100 μL per well were added to the remaining receptor plates and all plates were incubated for one hour at room temperature.” left out

T2 sequence (P08637 17-208 limits assumed): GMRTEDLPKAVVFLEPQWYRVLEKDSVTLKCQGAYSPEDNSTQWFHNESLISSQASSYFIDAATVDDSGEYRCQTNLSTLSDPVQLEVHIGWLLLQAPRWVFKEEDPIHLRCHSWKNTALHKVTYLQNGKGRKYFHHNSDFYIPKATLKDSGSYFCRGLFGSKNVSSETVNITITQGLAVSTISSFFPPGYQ
T4 sequence (P08637 17-208 F176V limits assumed): as the sequence (P08637 17-208 limits assumed) above, with F160V counted along it

Binder	EC50 (read off the curve) [1]	EC50 (read off the curve) [2]	EC50 (read off the curve) [3]	IC50 [4]	IC50 [5]	decreased affinity fold vs wildtype parent antibody produced in GS 5.0 [6]	decreased affinity fold vs wildtype parent antibody produced in GS 5.0 [7]
B1	~0.03 µg/mL	~0.02 µg/mL	~0.2 µg/mL				
B2				0.16 µg/mL	1.31 µg/mL	2 to 6 fold	8 to 60 fold
